From the supplement of paper PMC10724198
± gives the standard deviation of the averaged measurements.

Tested on: Saccharomyces cerevisiae
Assay: protein stability index of tFT-peptide fusion (C-terminal peptide) (PSI (0-1 scale)); higher = more stable (slower turnover)
Conditions: temperature: 30 C
Method: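 MPS profiling in S. cerevisiae of the yeast C-terminome library: the last 12 aa of each annotated ORF are fused to the C-terminus of a sfGFP-mCherry timer, after a GGGS linker. Cells are FACS-sorted into 8 mCherry/sfGFP bins and deep-sequenced. PSI runs from 0 (unstable) to 1 (stable); wild type and das1Δ backgrounds, two technical replicates each.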

[1] = genetic background: das1 deletion

Sequence | protein stability index [1] | protein stability index (genetic background: wild type)
RSFVTRFLHFWC [HIP1 C-terminal 12 aa] | 0.777 ± 0.024 | 0.716 ± 0.046
VDSEGQIRYAKE [YCR087C-A C-terminal 12 aa] | 0.673 ± 0.028 | 0.6705 ± 0.0015
SHPIDVNLQFIM [MCA1 C-terminal 12 aa] | 0.735 ± 0.013 | 0.689 ± 0.039
EMTHSLFKKYGI [CRC1 C-terminal 12 aa] | 0.705 ± 0.017 | 0.722 ± 0.047
RLKPRQIVPKRS [SLI15 C-terminal 12 aa] | 0.7194 ± 0.0028 | 0.724 ± 0.054
VSKTYEEHIETV [JEN1 C-terminal 12 aa] | 0.688 ± 0.023 | 0.692 ± 0.013
HIFYFVLSYSEW [YIL030W-A C-terminal 12 aa] | 0.172 ± 0.022 | 0.192 ± 0.0083
AIEEGAGAFLLS [UFD4 C-terminal 12 aa] | 0.706 ± 0.03 | 0.6771 ± 0.0053
SEPTNDDLDATK [MRX10 C-terminal 12 aa] | 0.678 ± 0.033 | 0.675 ± 0.019
MKLFEENKKEEE [PET111 C-terminal 12 aa] | 0.722 ± 0.014 | 0.684 ± 0.035
YFFSSDRAIFNA [YGL041C-B C-terminal 12 aa] | 0.731 ± 0.022 | 0.7029 ± 0.0011
EEANEDEEEDDW [MYO5 C-terminal 12 aa] | 0.6825 ± 0.0025 | 0.706 ± 0.015
VIIVPIAVHFSR [SNC1 C-terminal 12 aa] | 0.561 ± 0.024 | 0.581 ± 0.0095
SGIVENDFENRS [YOR1 C-terminal 12 aa] | 0.707 ± 0.013 | 0.705 ± 0.084
ISRKAGHPAPAF [YML100W-A C-terminal 12 aa] | 0.717 ± 0.0091 | 0.704 ± 0.03
LITMIRFVNSQK [DCG1 C-terminal 12 aa] | 0.677 ± 0.044 | 0.673 ± 0.034
VLYIILYYIILY [YGL024W C-terminal 12 aa] | 0.282 ± 0.02 | 0.181 ± 0.035
VAKKRLSSRSKP [YNL162W-A C-terminal 12 aa] | 0.715 ± 0.05 | 0.658 ± 0.02
TNWGQHKTVQNT [PPE1 C-terminal 12 aa] | 0.698 ± 0.024 | 0.713 ± 0.019
TNGITTERHKKK [NTG2 C-terminal 12 aa] | 0.714 ± 0.0084 | 0.668 ± 0.028
FKSGQNMLKDEL [SCJ1 C-terminal 12 aa] | 0.681 ± 0.022 | 0.648 ± 0.0073

Sequence | protein stability index [1] | protein stability index (genetic background: wild type)
RKRFSYTQTKNK [RSM19 C-terminal 12 aa] | 0.678 ± 0.013 | 0.66787 ± 0.00059
EELEAEQIDVFS [PRP8 C-terminal 12 aa] | 0.689 ± 0.023 | 0.684 ± 0.02
LTLIPILFGKLQ [YNL203C C-terminal 12 aa] | 0.6875 ± 0.0045 | 0.354 ± 0.0097
RAYCVGFKWVRF [MCH5 C-terminal 12 aa] | 0.675 ± 0.02 | 0.145 ± 0.028
GAAIAAGVAFLF [YCL048W-A C-terminal 12 aa] | 0.716 ± 0.011 | 0.538 ± 0.021
NSSGEFQLESLF [MRI1 C-terminal 12 aa] | 0.707 ± 0.023 | 0.698 ± 0.051
PSYEMRYNKNER [YBL065W C-terminal 12 aa] | 0.7137 ± 0.0027 | 0.715 ± 0.0081
KNFYNRHTSPQL [YHL008C C-terminal 12 aa] | 0.737 ± 0.03 | 0.679 ± 0.02
FLRNFKDNRFLQ [YOR121C C-terminal 12 aa] | 0.726 ± 0.025 | 0.6968 ± 0.004
DTFFDRVMKVLT [NAN1 C-terminal 12 aa] | 0.707 ± 0.034 | 0.6917 ± 0.0012
LDKIKTDDTYTS [FYV7 C-terminal 12 aa] | 0.7 ± 0.024 | 0.6966 ± 0.0045
LHPFREPAKINI [YDR048C C-terminal 12 aa] | 0.665 ± 0.024 | 0.701 ± 0.054
PICIVGNFIPLS [RDS2 C-terminal 12 aa] | 0.689 ± 0.024 | 0.722 ± 0.024
VMQELRKLKNAM [GLO4 C-terminal 12 aa] | 0.709 ± 0.018 | 0.64 ± 0.025
TRKKGGRRGRRL [RPS14A C-terminal 12 aa] | 0.711 ± 0.011 | 0.676 ± 0.011
YQVSIAKVPRLT [BUD5 C-terminal 12 aa] | 0.711 ± 0.0095 | 0.4878 ± 0.0037
LPSINTIFKDML [DOT6 C-terminal 12 aa] | 0.702 ± 0.03 | 0.731 ± 0.059
HRIASKIRSKLR [GIP4 C-terminal 12 aa] | 0.686 ± 0.0021 | 0.714 ± 0.03
SSTTEETILVRK [RKM1 C-terminal 12 aa] | 0.689 ± 0.023 | 0.7025 ± 0.0051
DALYRIIYGNIL [TIP20 C-terminal 12 aa] | 0.711 ± 0.02 | 0.743 ± 0.037
